Reference: patent US20180155451A1 (published 2018)

T1: FcγRIIb (human, UniProt P31994 43-217)
T1 construct: extracellular domain; also called FcgRIIb; 2b
T1 sequence (looked up): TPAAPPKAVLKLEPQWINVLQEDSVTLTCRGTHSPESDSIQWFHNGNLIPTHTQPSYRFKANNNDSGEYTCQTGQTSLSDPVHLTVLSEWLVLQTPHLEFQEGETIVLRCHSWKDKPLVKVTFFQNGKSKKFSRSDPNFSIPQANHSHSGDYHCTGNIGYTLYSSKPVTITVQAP


Assays:
FcγRIa = target: T2, FcγRIa (human, UniProt P12314 16-292); experiment: SPR, captured antibody; relative to GpH7-A5/GpH7-B3/GpL16-k0
T2 construct: extracellular domain; also called FcgRI; 1a

FcγRIIb = target: T1, FcγRIIb; experiment: as above

T2 sequence (P12314 16-292): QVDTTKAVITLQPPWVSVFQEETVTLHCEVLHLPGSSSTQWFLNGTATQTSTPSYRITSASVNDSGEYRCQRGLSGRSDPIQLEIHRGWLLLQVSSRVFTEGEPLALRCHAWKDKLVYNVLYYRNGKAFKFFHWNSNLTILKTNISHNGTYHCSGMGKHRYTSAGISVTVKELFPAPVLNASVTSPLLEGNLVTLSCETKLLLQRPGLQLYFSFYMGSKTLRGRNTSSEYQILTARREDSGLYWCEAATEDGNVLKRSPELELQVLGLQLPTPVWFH

Binder | He/Con_1a (FcγRIa) | He/Con_2b (FcγRIIb)
GpH7-A5/GpH7-B3 variant (G236_16H)/GpL16-k0 (antibody, human IgG1, kappa, IgG1 heterodimer, mutation in the GpH7-B3 chain only; also called He Ab) heavy 1: not shown heavy 2: not shown light: DIVMTQSPLSLPVTPGEPASISCQASESLVHSNRNTYLHWYLQKPGQSPQLLIYKVSNRFSGVPDRFSGSGSGTDFTLKISRVEAEDVGVYYCSQNTHVPPTFGQGTKVEIERTVAAPSVFIFPPSDEQLKSGTASVVCLLNNFYPREAKVQWKVDNALQSGNSQESVTEQDSKDSTYSLSSTLTLSKADYEKHKVYACEVTHQGLSSPVTKSFNRGEC | 83.5 relative, HeCon Ab = 100 | 27.9 relative, HeCon Ab = 100
GpH7-A5/GpH7-B3 variant (G236_20W)/GpL16-k0 (antibody, human IgG1, kappa, IgG1 heterodimer, G236W in the GpH7-B3 chain only; also called GpH7-A5/GpH7-B3-03-20W/GpL16-k0; He Ab) heavy 1: not shown heavy 2: not shown light: DIVMTQSPLSLPVTPGEPASISCQASESLVHSNRNTYLHWYLQKPGQSPQLLIYKVSNRFSGVPDRFSGSGSGTDFTLKISRVEAEDVGVYYCSQNTHVPPTFGQGTKVEIERTVAAPSVFIFPPSDEQLKSGTASVVCLLNNFYPREAKVQWKVDNALQSGNSQESVTEQDSKDSTYSLSSTLTLSKADYEKHKVYACEVTHQGLSSPVTKSFNRGEC | 105 relative, HeCon Ab = 100 | 58.2 relative, HeCon Ab = 100
GpH7-A5/GpH7-B3 variant (G237_03V)/GpL16-k0 (antibody, human IgG1, kappa, IgG1 heterodimer, mutation in the GpH7-B3 chain only; also called He Ab) heavy 1: not shown heavy 2: not shown light: DIVMTQSPLSLPVTPGEPASISCQASESLVHSNRNTYLHWYLQKPGQSPQLLIYKVSNRFSGVPDRFSGSGSGTDFTLKISRVEAEDVGVYYCSQNTHVPPTFGQGTKVEIERTVAAPSVFIFPPSDEQLKSGTASVVCLLNNFYPREAKVQWKVDNALQSGNSQESVTEQDSKDSTYSLSSTLTLSKADYEKHKVYACEVTHQGLSSPVTKSFNRGEC | 78.5 relative, HeCon Ab = 100 | 61.4 relative, HeCon Ab = 100
GpH7-A5/GpH7-B3 variant (G236_19Q)/GpL16-k0 (antibody, human IgG1, kappa, IgG1 heterodimer, mutation in the GpH7-B3 chain only; also called He Ab) heavy 1: not shown heavy 2: not shown light: DIVMTQSPLSLPVTPGEPASISCQASESLVHSNRNTYLHWYLQKPGQSPQLLIYKVSNRFSGVPDRFSGSGSGTDFTLKISRVEAEDVGVYYCSQNTHVPPTFGQGTKVEIERTVAAPSVFIFPPSDEQLKSGTASVVCLLNNFYPREAKVQWKVDNALQSGNSQESVTEQDSKDSTYSLSSTLTLSKADYEKHKVYACEVTHQGLSSPVTKSFNRGEC | 92.1 relative, HeCon Ab = 100 | 46.6 relative, HeCon Ab = 100

The remaining lines, values ahead:

He/Con_1a (FcγRIa) | He/Con_2b (FcγRIIb) | Binder
105 relative, HeCon Ab = 100 | 65.7 relative, HeCon Ab = 100 | GpH7-A5/GpH7-B3 variant (H268_06M)/GpL16-k0 (antibody, human IgG1, kappa, IgG1 heterodimer, mutation in the GpH7-B3 chain only; also called He Ab) heavy 1: not shown heavy 2: not shown light: DIVMTQSPLSLPVTPGEPASISCQASESLVHSNRNTYLHWYLQKPGQSPQLLIYKVSNRFSGVPDRFSGSGSGTDFTLKISRVEAEDVGVYYCSQNTHVPPTFGQGTKVEIERTVAAPSVFIFPPSDEQLKSGTASVVCLLNNFYPREAKVQWKVDNALQSGNSQESVTEQDSKDSTYSLSSTLTLSKADYEKHKVYACEVTHQGLSSPVTKSFNRGEC
44.5 relative, HeCon Ab = 100 | 24.6 relative, HeCon Ab = 100 | GpH7-A5/GpH7-B3 variant (G237_05P)/GpL16-k0 (antibody, human IgG1, kappa, IgG1 heterodimer, mutation in the GpH7-B3 chain only; also called He Ab) heavy 1: not shown heavy 2: not shown light: DIVMTQSPLSLPVTPGEPASISCQASESLVHSNRNTYLHWYLQKPGQSPQLLIYKVSNRFSGVPDRFSGSGSGTDFTLKISRVEAEDVGVYYCSQNTHVPPTFGQGTKVEIERTVAAPSVFIFPPSDEQLKSGTASVVCLLNNFYPREAKVQWKVDNALQSGNSQESVTEQDSKDSTYSLSSTLTLSKADYEKHKVYACEVTHQGLSSPVTKSFNRGEC
106 relative, HeCon Ab = 100 | 89.6 relative, HeCon Ab = 100 | GpH7-A5/GpH7-B3 variant (H268_04F)/GpL16-k0 (antibody, human IgG1, kappa, IgG1 heterodimer, mutation in the GpH7-B3 chain only; also called He Ab) heavy 1: not shown heavy 2: not shown light: DIVMTQSPLSLPVTPGEPASISCQASESLVHSNRNTYLHWYLQKPGQSPQLLIYKVSNRFSGVPDRFSGSGSGTDFTLKISRVEAEDVGVYYCSQNTHVPPTFGQGTKVEIERTVAAPSVFIFPPSDEQLKSGTASVVCLLNNFYPREAKVQWKVDNALQSGNSQESVTEQDSKDSTYSLSSTLTLSKADYEKHKVYACEVTHQGLSSPVTKSFNRGEC
108 relative, HeCon Ab = 100 | 88.9 relative, HeCon Ab = 100 | GpH7-A5/GpH7-B3 variant (H268_07I)/GpL16-k0 (antibody, human IgG1, kappa, IgG1 heterodimer, mutation in the GpH7-B3 chain only; also called He Ab) heavy 1: not shown heavy 2: not shown light: DIVMTQSPLSLPVTPGEPASISCQASESLVHSNRNTYLHWYLQKPGQSPQLLIYKVSNRFSGVPDRFSGSGSGTDFTLKISRVEAEDVGVYYCSQNTHVPPTFGQGTKVEIERTVAAPSVFIFPPSDEQLKSGTASVVCLLNNFYPREAKVQWKVDNALQSGNSQESVTEQDSKDSTYSLSSTLTLSKADYEKHKVYACEVTHQGLSSPVTKSFNRGEC
